Assay results from US20120077731A1 (Ablynx, published 2012).
Where “and” joins values, the source holds several entries; their conditions need not be identical. Identical values can stand only once.

T1: Human membrane IL-6R on cells (human, UniProt P08887 20-468)
T1 sequence (looked up): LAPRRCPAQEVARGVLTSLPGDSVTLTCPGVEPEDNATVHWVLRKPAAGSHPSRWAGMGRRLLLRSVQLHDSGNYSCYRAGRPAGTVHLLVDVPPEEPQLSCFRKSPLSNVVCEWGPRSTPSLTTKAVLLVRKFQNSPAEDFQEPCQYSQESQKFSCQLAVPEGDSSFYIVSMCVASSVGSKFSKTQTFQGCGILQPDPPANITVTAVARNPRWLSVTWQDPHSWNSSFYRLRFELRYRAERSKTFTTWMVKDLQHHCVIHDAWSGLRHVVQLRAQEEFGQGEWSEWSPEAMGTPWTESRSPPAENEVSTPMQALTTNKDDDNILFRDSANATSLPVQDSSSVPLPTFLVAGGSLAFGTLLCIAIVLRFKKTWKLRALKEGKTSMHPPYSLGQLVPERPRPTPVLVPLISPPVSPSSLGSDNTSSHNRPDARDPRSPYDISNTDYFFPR

T2: Human soluble IL-6R (human, UniProt P08887 20-358)
T2 construct: Soluble recombinant form; biotinylated in some assays; also called hIL-6R; human IL-6R
T2 sequence (looked up): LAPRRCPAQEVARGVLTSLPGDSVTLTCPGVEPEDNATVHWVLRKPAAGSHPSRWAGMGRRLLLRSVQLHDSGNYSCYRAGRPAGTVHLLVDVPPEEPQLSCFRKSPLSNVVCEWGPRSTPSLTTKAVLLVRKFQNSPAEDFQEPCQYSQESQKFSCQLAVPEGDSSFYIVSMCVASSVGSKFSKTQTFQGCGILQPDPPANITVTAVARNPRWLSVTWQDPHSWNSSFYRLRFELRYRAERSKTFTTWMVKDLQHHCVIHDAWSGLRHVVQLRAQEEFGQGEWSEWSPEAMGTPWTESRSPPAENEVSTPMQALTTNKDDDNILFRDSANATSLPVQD

T3: Cyno IL-6R (cynomolgus monkey, UniProt A0A2K5WN54 60-396)
T3 construct: also called cynomolgus monkey IL-6R; recombinant cyno sIL-6R
T3 sequence: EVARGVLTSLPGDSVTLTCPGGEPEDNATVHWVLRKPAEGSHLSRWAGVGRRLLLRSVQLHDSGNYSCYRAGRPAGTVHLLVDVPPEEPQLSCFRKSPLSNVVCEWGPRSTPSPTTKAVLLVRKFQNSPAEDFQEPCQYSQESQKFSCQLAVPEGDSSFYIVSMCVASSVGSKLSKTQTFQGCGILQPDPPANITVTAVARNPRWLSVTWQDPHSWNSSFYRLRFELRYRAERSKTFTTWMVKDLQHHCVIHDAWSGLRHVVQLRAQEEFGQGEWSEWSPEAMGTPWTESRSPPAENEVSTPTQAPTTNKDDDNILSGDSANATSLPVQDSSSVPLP

T4: Mouse IL-6R (mouse, UniProt P22272 20-364, limits assumed)
T4 construct: also called mouse sIL-6R
T4 sequence (looked up): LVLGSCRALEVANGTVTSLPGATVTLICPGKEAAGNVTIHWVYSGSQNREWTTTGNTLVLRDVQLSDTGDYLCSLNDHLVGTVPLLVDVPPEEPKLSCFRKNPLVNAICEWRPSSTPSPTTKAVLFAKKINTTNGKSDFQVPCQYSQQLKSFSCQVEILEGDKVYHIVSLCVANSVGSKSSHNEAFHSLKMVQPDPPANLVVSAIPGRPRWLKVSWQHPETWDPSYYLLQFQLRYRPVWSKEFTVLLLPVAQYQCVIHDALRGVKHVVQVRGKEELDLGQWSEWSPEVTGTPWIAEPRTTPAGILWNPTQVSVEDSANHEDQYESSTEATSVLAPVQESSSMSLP

T5: Cyno plasma sIL-6R (cynomolgus monkey, UniProt A0A2K5WN54 60-396)
T5 construct: also called cynomolgus sIL-6R
T5 sequence: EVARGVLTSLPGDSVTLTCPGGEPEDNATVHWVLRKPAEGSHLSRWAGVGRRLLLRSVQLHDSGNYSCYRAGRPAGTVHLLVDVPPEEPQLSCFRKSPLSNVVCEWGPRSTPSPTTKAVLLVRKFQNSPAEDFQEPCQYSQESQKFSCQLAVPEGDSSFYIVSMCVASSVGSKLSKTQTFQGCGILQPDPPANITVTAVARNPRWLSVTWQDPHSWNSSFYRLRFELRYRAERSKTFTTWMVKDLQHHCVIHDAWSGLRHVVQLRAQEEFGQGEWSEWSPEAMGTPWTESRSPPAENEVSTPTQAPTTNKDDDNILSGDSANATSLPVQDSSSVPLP

T6: Human plasma sIL-6R (human, UniProt P08887 20-355, limits assumed)
T6 construct: also called plasma-derived human IL-6R
T6 sequence (looked up): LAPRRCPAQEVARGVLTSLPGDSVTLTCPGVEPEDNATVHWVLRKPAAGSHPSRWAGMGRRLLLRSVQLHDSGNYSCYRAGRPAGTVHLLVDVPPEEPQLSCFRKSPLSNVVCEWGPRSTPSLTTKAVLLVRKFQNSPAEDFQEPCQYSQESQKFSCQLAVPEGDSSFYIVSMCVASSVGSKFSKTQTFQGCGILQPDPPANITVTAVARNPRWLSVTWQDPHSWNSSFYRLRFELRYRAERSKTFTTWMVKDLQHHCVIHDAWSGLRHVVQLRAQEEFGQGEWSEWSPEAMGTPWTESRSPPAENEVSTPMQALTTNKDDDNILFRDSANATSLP


How the values were obtained:
[1] = target: T1, Human membrane IL-6R on cells; assay: cell-based or functional assay
[2] = target: T1, Human membrane IL-6R on cells; assay: cell-based or functional assay; remark: listed apart in the source
[3] = target: T1, Human membrane IL-6R on cells; assay: cell-based or functional assay; remark: listed apart in the source
[4] = target: T1, Human membrane IL-6R on cells; assay: cell-based or functional assay; remark: listed apart in the source
[5] = target: T2, Human soluble IL-6R; assay: Biacore off-rate, periplasmic extract
[6] = target: T2, Human soluble IL-6R; assay: Biacore, binding to IL-6R (parent value)
[7] = target: T2, Human soluble IL-6R; assay: SPR Biacore 3000, IL-6R amine-coupled to CM5
Procedure: (§1) Nanobodies were injected at 5 different concentrations between 1 and 50 nM. Flow rate was 45 μl/min in all experiments. Association and dissociation phase were 3 and 10 min, respectively. The chip was regenerated using Glycine/HCl pH 1.5.

[8] = target: T3, Cyno IL-6R; assay: SPR Biacore 3000, cyno IL-6R amine-coupled to CM5
Procedure: Remaining reactive groups were inactivated. […] Each sample was injected for 4 min at a flow rate of 45 μl/min to allow for binding to chip-bound antigen. Next, binding buffer without Nanobody was sent over the chip at the same flow rate to allow for dissociation of bound Nanobody.

[9] = target: T2, Human soluble IL-6R; assay: Alphascreen, inhibition of bio-IL-6 binding to IL-6R
Procedure: (§2) Finally streptavidin donor beads were added and after 1 hour incubator the plate was read on the Envision microplate reader.

[10] = target: T2, Human soluble IL-6R; assay: summary table C-13 of Nanobody characteristics, Kd on IL-6R
Procedure: as §1

[11] = target: T2, Human soluble IL-6R; assay: inhibition of the IL-6/IL-6R interaction, summary table C-13
Procedure: as §2

[12] = target: T2, Human soluble IL-6R; assay: competition for IL-6R, competitor reference Fab, summary table C-13
[13] = target: T2, Human soluble IL-6R; assay: Alphascreen, 100 nM Nanobody, 0.4 nM bio-IL-6R; competitor: reference Fab
[14] = target: T4, Mouse IL-6R; assay: ELISA: plate coated with 1 µg/ml mouse IL-6R, 500 nM Nanobody, anti-myc + anti-mouse-HRP
Procedure: Detection was performed with anti-myc and anti-mouse-HRP as first and second antibody respectively.

[15] = target: T2, Human soluble IL-6R; assay: Alphascreen IL-6/IL-6R competition with purified Nanobody; row EC50 of the table, axis [inhibitor], M; blocked ligand IL-6
[16] = target: T2, Human soluble IL-6R; assay: Alphascreen IL-6/IL-6R competition (IL-6R 0.3 nM, bio-IL-6 3 nM); row EC50 of the fit table, axis [competitor], M; blocked ligand IL-6
[17] = target: T2, Human soluble IL-6R; assay: Biacore, binding to IL-6R
[18] = target: T2, Human soluble IL-6R; assay: Alphascreen, inhibition of bio-IL-6 binding to IL-6R; remark: listed apart in the source
Procedure: Finally streptavidin donor beads were added and after 1 hour incubation the plate was read on the Envision microplate reader. Parental clones were included as reference.

[19] = target: T2, Human soluble IL-6R; assay: Biacore T100
[20] = target: T2, Human soluble IL-6R; assay: Biacore T100; value marked estimated
[21] = target: T2, Human soluble IL-6R; assay: Biacore T100, IL-6R covalently coupled
[22] = target: T5, Cyno plasma sIL-6R; assay: plasma potency assay, cyno plasma, 2.4 nM IL6; blocked ligand IL-6
Procedure: (§3) All 5 affinity matured Nanobodies and the sequence optimized Nanobody were also tested in a plasma potency assay. […] TMB was used as substrate.

[23] = target: T6, Human plasma sIL-6R; assay: plasma potency assay, human plasma, 42 nM IL6; blocked ligand IL-6
Procedure: as §3

[24] = target: T6, Human plasma sIL-6R; assay: plasma potency assay, human plasma, 2.4 nM IL6; blocked ligand IL-6
Procedure: as §3

Row | IC50 [16] [nM] | koff [17] [s⁻¹] | fold difference of IC50 to IL6R03 [18] [fold] | Kd [17] [nM] | kon [17] [M⁻¹ s⁻¹] | Kd [19] [nM] | kon [20] [M⁻¹ s⁻¹] | koff [21] [s⁻¹] | IC50 [22] [nM] | IC50 (read off the curve) [23] [nM] | IC50 [24] [nM] | Binder | other results
1 | 0.187 | – | – | – | – | – | – | – | – | – | – | IL6R03 (VHH, also called PMP31A4; not shown: C-terminal c-myc and (His)6 tags) VHH: EVQLVESGGGLVQAGGSLRLSCAASGSIFKVNAMGWYRQAPGKQRELVAGIISGGSTNYADSVKGRLTISRDNAKNTVYLQMNSLKPEDTAVYYCSFVTTNSDYDLGRDYWGQGTQVTVSS | IC50 (nM) + HSA, XG-1 cell proliferation [1]: 17.5 nM; IC50 (nM), XG-1 cell proliferation [1]: 16.2 nM; IC50 (nM), TF1 cell proliferation [2]: 62.1 nM; IC50 (nM) XG-1 [3]: 16.2 nM; IC50 values (nM), XG-1 assay [4]: 17 nM; koff [5]: 0.0016 s⁻¹; Kd [6]: 3 nM; Kd [7]: 3 nM; koff [7]: 0.00147 s⁻¹ and 0.0016 s⁻¹; kon [7]: 484000 M⁻¹ s⁻¹; Kd [8]: 4.4 nM; koff [8]: 0.00164 s⁻¹; kon [8]: 370000 M⁻¹ s⁻¹; IC50 [9]: 0.716 nM; Kd [10]: 3 nM; IC50 [11]: 0.72 nM; Ref Fab competition (%) [12]: 5%; Residual reference-Fab binding to IL-6R (%) [13]: 5%; binding result [14]: no binding (tested: 500 nM); IC50 [15]: 0.105 nM
2 | 0.108 | 0.001 | ≤ 2 | – | – | – | – | – | – | – | – | IL6R64 (VHH) VHH: EVQLVESGGGLVQPGGSLRLSCAASGSIFKVNAMGWYRQAPGKGRELVAGIISGGSTNYADSVKGRLTISRDNAKNTVYLQMNSLRPEDTAVYYCAFVTTNSDYDLGRDYWGQGTLVTVSS | –
3 | 0.28 | 0.00207 | ≤ 2 | 2.2 | 929000 | – | – | – | – | – | – | IL6R62 (VHH) VHH: EVQLVESGGGLVQPGGSLRLSCAASGSIFKVNAMGWYRQAPGKGRELVAGIISGGSTNYADSVKGRFTISRDNAKNTVYLQMNSLRPEDTAVYYCSFVTTNSDYDLGRDYWGQGTLVTVSS | –
4 | 0.336 | 0.0017 | ≤ 2 | 2 | 850000 | – | – | – | – | – | – | IL6R61 (VHH) VHH: EVQLVESGGGLVQPGGSLRLSCAASGSIFKVNAMGWYRQAPGKGRELVAGIISGGSTNYADSVKGRLTISRDNAKNTVYLQMNSLRPEDTAVYYCSFVTTNSDYDLGRDYWGQGTLVTVSS | –
5 | 0.65 | 0.00365 | ~4 | 3.7 | 990000 | – | – | – | – | – | – | IL6R63 (VHH) VHH: EVQLVESGGGLVQPGGSLRLSCAASGSIFKVNAMGWYRQAPGKGRELVAGIISGGSTNYADSVKGRLTISRDNAKNTLYLQMNSLRPEDTAVYYCSFVTTNSDYDLGRDYWGQGTLVTVSS | –
6 | – | – | – | – | – | 0.033 | ~1e+06 | 3.3e-05 | 0.1 | ~0.4 | 0.13 | PMP20E10 (VHH, not shown: c-myc and (His)6 tags) VHH: EVQLVESGGGLVQPGGSLRLSCAASGSVFKINVMAWYRQAPGKGRELVAGIVSGGSTSYADSVKGRFTISRDNAKNTLYLQMNSLRPEDTAVYYCAFITTESDYDLGRRYWGQGTLVTVSS | –
7 | – | – | – | – | – | 0.012 | ~1e+06 | 1.2e-05 | 0.08 | ~0.4 | 0.1 | PMP21A10 (VHH, not shown: c-myc and (His)6 tags) VHH: EVQLVESGGGLVQPGGSLRLSCAASGSIFKINVMAWYRQAPGKGRELVAGIVTGGSTSYADSVKGRFTISRDNAKNTLYLQMNSLRPEDTAVYYCAFITTESDYDLGRRYWGQGTLVTVSS | –
8 | – | – | – | – | – | 0.035 | ~1e+06 | 3.5e-05 | – | ~0.4 | 0.13 | PMP21D11 (VHH, not shown: c-myc and (His)6 tags) VHH: EVQLVESGGGLVQPGGSLRLSCAASGSVFKINVMAWYRQAPGKGRELVAGIVTGGSTSYADSVKGRFTISRDNAKNTLYLQMNSLRPEDTAVYYCAFITTESDYDLGRRYWGQGTLVTVSS | –
9 | – | – | – | – | – | 0.033 | ~1e+06 | 3.3e-05 | 0.07 | ~0.4 | 0.13 | PMP20F6 (VHH, not shown: c-myc and (His)6 tags) VHH: EVQLVESGGGLVQPGGSLRLSCAASGSVFKINVMAWYRQAPGKGRELVAGIVSGGSTSYADSVKGRFTISRDNAKNTLYLQMNSLRPEDTAVYYCAFITTNSDYDLGRRYWGQGTLVTVSS | –
